Experiments:
[1] = target: Prolink (PK)-tagged CXC chemokine receptor 4 (CXCR4) (UniProt P61073)
[2] = target: Prolink (PK)-tagged CXC chemokine receptor 4 (CXCR4) (UniProt P61073); remark: listed apart in the source

UniProt P61073, sequence (P61073 whole entry): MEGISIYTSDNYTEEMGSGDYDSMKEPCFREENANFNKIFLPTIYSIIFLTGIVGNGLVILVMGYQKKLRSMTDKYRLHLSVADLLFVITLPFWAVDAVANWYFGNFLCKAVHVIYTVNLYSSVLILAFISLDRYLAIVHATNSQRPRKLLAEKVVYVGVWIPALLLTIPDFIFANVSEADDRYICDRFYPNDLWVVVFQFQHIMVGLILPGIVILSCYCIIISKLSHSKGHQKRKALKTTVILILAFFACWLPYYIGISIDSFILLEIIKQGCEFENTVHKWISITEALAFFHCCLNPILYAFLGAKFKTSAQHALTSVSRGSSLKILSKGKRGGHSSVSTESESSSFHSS

half-time of internalization of SNAP-tagged CXCR4 in HEK293A cells with 1 µM CXCL12 (constitutive: 22.1 min) [1]: 14.1 min
real-time internalization of N-terminally SNAP-tagged CXCR4 in HEK293A cells, CXCL12 0.1 nM to 1 µM, potency of CXCL12 (pEC50) [1]: 7.7 pEC50
β-arrestin2 recruitment to PK-tagged CXCR4 (PathHunter, C2C12 cells), potency of CXCL12 (pEC50) [2]: 7.7 pEC50
Substance: CXC chemokine ligand 12 (CXCL12) (from UniProt P48061 22-93)

— paper PMC8115334
